This note sets out measurements from patent publication US20090118184A1 (UNIVERSITY OF ROCHESTER, published 2009).

What all share (experiment): cell-based or functional assay
Assay [1] addresses T1, factor VIIIa A1/A3C1C2 dimer, S313A (human, UniProt P00451 20-391; P00451 1709-2351).
T1 chain 1: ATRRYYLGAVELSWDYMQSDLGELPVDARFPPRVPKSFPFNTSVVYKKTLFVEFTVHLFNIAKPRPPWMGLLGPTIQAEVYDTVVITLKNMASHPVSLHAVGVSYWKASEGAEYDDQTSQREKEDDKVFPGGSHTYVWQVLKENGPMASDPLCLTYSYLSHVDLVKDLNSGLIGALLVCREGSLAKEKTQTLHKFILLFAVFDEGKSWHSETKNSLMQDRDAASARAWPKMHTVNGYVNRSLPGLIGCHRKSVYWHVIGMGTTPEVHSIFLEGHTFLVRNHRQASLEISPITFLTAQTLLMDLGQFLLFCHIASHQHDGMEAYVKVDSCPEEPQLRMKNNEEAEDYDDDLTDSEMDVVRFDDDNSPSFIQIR
T1 chain 2: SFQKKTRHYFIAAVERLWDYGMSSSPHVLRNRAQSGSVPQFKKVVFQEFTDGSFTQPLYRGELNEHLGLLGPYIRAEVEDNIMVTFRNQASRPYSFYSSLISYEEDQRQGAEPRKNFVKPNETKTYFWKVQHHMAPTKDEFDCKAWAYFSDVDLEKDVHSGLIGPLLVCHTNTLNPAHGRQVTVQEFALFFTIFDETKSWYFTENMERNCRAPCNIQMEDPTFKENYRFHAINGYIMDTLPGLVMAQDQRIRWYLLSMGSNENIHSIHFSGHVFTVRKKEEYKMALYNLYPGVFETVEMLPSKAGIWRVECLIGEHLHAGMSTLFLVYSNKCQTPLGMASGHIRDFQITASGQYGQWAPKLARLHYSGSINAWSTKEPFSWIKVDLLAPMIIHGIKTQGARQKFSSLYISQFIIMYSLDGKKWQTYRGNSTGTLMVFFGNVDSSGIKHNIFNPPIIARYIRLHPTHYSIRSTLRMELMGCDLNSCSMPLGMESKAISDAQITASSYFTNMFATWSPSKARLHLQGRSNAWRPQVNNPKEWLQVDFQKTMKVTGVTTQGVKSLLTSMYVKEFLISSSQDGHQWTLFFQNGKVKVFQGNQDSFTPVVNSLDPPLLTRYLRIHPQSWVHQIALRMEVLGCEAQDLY

In assay [2] the target is T2, factor VIIIa A1/A3C1C2 dimer, Y1792F (human, UniProt P00451 20-391; P00451 1709-2351).
T2 sequence 1: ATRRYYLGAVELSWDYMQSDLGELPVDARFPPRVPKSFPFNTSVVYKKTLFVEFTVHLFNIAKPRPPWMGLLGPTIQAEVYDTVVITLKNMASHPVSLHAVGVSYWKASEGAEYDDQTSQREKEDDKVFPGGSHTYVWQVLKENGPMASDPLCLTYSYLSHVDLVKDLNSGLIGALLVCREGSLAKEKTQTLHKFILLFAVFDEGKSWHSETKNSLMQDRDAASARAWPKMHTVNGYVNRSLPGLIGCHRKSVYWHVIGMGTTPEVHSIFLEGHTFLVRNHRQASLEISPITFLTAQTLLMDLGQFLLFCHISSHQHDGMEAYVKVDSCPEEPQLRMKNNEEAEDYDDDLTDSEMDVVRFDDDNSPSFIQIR
T2 sequence 2: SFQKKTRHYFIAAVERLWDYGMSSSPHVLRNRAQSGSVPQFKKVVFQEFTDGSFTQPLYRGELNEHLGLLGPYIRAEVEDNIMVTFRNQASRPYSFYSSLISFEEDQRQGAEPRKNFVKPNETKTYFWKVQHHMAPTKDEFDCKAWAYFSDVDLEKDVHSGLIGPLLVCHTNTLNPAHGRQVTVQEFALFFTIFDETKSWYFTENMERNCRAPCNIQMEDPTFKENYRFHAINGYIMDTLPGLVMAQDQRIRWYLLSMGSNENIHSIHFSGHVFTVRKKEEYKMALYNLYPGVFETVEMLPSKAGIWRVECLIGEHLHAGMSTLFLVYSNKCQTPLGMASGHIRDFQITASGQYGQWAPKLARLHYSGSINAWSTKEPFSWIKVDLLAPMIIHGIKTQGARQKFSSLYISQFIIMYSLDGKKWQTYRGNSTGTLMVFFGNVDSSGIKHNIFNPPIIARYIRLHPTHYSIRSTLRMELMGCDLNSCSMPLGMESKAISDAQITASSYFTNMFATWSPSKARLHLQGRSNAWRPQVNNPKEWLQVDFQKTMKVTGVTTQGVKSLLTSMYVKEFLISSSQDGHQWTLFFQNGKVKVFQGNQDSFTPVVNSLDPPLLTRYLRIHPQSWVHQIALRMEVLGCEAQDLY

Assay [3] deals with T3, factor VIIIa A1/A3C1C2 dimer, Q1820A (human, UniProt P00451 20-391; P00451 1709-2351).
T3 sequence 1: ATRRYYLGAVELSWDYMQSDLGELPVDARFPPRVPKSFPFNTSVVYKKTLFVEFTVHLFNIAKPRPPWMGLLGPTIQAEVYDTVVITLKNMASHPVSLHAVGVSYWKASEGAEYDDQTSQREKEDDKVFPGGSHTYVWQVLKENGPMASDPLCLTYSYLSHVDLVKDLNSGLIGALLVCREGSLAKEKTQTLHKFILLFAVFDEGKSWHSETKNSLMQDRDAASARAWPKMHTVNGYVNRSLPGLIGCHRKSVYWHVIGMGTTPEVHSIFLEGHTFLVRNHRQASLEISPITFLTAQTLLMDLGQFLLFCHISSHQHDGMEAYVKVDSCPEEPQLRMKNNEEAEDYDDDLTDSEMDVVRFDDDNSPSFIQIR
T3 sequence 2: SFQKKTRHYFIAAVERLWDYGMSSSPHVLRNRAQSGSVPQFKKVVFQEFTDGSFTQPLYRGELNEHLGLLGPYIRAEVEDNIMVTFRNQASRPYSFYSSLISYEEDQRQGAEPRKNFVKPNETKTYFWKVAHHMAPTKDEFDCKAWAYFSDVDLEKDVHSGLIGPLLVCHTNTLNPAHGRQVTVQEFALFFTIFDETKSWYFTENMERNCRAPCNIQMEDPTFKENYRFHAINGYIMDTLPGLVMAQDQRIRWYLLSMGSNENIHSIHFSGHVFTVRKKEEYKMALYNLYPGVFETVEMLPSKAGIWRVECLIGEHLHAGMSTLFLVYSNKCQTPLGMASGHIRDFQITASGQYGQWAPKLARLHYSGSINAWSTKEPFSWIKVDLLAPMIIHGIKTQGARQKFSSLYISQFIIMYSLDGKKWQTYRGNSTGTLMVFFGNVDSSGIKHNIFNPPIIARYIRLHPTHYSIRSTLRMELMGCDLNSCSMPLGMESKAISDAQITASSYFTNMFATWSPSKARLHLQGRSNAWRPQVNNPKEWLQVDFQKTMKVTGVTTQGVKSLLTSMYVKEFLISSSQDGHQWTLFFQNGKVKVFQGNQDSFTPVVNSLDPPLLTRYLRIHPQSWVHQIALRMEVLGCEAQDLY

B1: factor VIIIa A2 subunit, wild type (other)
chain: SVAKKHPKTWVHYIAAEEEDWDYAPLVLAPDDRSYKSQYLNNGPQRIGRKYKKVRFMAYTDETFKTREAIQHESGILGPLLYGEVGDTLLIIFKNQASRPYNIYPHGITDVRPLYSRRLPKGVKHLKDFPILPGEIFKYKWTVTVEDGPTKSDPRCLTRYYSSFVNMERDLASGLIGPLLICYKESVDQRGNQIMSDKRNVILFSVFDENRSWYLTENIQRFLPNPAGVQLEDPEFQASNIMHSINGYVFDSLQLSVCLHEVAYWYILSIGAQTDFLSVFFSGYTFKHKMVYEDTLTLFPFSGETVFMSMENPGLWILGCHNSDFRNRGMTALLKVSSCDKNTGDYYEDSYEDISAYLLSKNNAIEPR
Consider B1, for which, in assay [1], the “Factor VIIIa decay rate relative to wild type, FIXa (+)” value was 1.86 relative to wild type and the “Factor VIIIa decay rate, FIXa (+)” value came to 0.021 min⁻¹. For the same molecule, in assay [2], the “Factor VIIIa decay rate relative to wild type, FIXa (+)” value is 38.4 relative to wild type; the “Factor VIIIa decay rate relative to wild type, FIXa (-)” value is 11.5 relative to wild type; the “Factor VIIIa decay rate, FIXa (+)” value worked out at 0.433 min⁻¹; the “Factor VIIIa decay rate, FIXa (-)” value came to 0.724 min⁻¹. In assay [3], the “Factor VIIIa decay rate relative to wild type, FIXa (+)” value was 1.01 relative to wild type and the “Factor VIIIa decay rate, FIXa (+)” value worked out at 0.0114 min⁻¹.
